Laboratory results from patent publication US20150057436A1 (ARGEN X, published 2015).
Positions count from the first letter of the chain named.

B1: hum 1F2 (fully humanized Vλ and VH fused to human Cλ and CH1), phage expressing gene3-Fab fusion (Fab, V domains shown)
VH: EVQLLESGGGLVQPGGSLRLSCAASGFTFSTYAMSWVRQAPGKGLEWVSGINTGGGSTGYADSVKGRFTISRDNSKNTLYLQMNSLRAEDTAVYYCAKDWMATTPWGQGTLVTVSS
VL: QTVVTQEPSFSVSPGGTVTLTCGLSSGSVTTNNYPGWYQQTPGQAPRTLIYNTNNRSSGVPDRFSGSILGNKAALTITGAQADDESDYYCALYMSSGSNNAVFGGGTKLTVL
notes: also called fully (hum) humanized 1F2
B2: Fab 1B3 (Fab, part only; not given: lambda light chain, V domains shown, not shown: a dimerising Fc or GST)
VH: EVQLVQSGAELRNPGASVKVSCKASGYTFTSYYIDWVRQAPGQGLEWMGRIDPEDGGTKYAQKFQGRVTFTADTSTSTAYVELSSLRSEDTAVYYCARSGRYELDYWGQGTQVTVSS
B3: Fab 1G1 (Fab, part only; not given: lambda light chain, V domains shown, not shown: a dimerising Fc or GST)
VH: B2 VH with I34T, G57D, S84T, A97L, R101A
B4: wild type llama 1E2 Fab (Fab, V domains shown)
VH: EVQLVESGGGLVQPGGSLRLSCTASGFTFSNYWMYWVRQAPGKGLEWVSAINAAGSTYYADSVKGRFTISRDNAKNTLYLQMNSLQSEDTALYYCANLPRWGQGTQVTVSS
VL: QTVVTQEPSLSVSPGGTVTLTCGLSSGSVTSGNYPGWYQQKPGQAPRTLIYNTNSRYSGVPNRFSGSISGNKAALTITGAQPEDEADYYCAVYIGSSSYPVVFGGGTHLTVL
notes: Llama variable and llama constant domains, produced from pCB3; captured through its myc tag; also called Fab 1E2
B5: hum 1E2 (fully humanized Vλ and VH fused to human Cλ and CH1), phage expressing gene3-Fab fusion (Fab, V domains shown)
VH: B4 VH with T23A, A74S, Q86R, S87A, L92V, Q106L
VL: B4 VL with L10F, K41T, Y57S, N62D, S69L, P82A, E83D, A86S, H108K
B6: wt 1E2 (llama Vλ and VH fused to human Cλ and CH1), phage expressing gene3-Fab fusion (Fab, V domains shown)
VH: B4 VH
VL: B4 VL
B7: chimeric 1E2 Fab (llama Vλ and VH fused to human Cλ and CH1) (Fab, V domains shown)
VH: B4 VH
VL: B4 VL
notes: VH fused to human CH1, Vλ fused to human Cλ; produced in E. coli from pCB5; myc tag; also called wt 1E2
B8: 1E2 Fab wt Vλ/safe VH (Fab, V domains shown)
VH: B4 VH with T23A, A74S, L92V
VL: B4 VL
notes: also called wt/safe
B9: 1E2 Fab wt Vλ/hum VH (Fab, V domains shown)
VH: B4 VH with T23A, A74S, Q86R, S87A, L92V, Q106L
VL: B4 VL
notes: also called wt/hum
B10: Fab 1C3 (Fab, part only; not given: lambda light chain, V domains shown, not shown: a dimerising Fc or GST)
VH: EVQLVESGGGLVQPGGSLRLSCAASGFTFSSYWMYWVRQAPGKGLEWVSAINTGGGRTYYADSVKGRFTISRDNAKNTLYLQMNSLKSEDTAVYYCAKGTSADGSSWYVPADPYDYWGQGTQVTVSS
B11: Fab 1A1 (Fab, part only; not given: lambda light chain, V domains shown, not shown: a dimerising Fc or GST)
VH: EVQLVESGGGLVQPGGSLRLSCAASGFTFDDYAMSWVRQAPGKGLEWVSTISWNGGATYYAESMKGRFTISRDNAKNTLYLQMNSLKSEDTAVYYCAKPYYSDYVGVEYDYWGQGTQVTVSS

Key:
human IL-1 Beta [1] = target: T1, human IL-1 Beta (human, UniProt P01584 117-269, biotinylated in the Fab, phage and competition ELISAs); assay: phage ELISA: biot-IL-1 Beta captured on neutravidin, crude phage, anti-M13-HRP
T1 construct: also called biot-IL-1 Beta; biotinylated IL-1 Beta
Method: (§1) The humanized variants of clone 1F2 were tested with phage expressing gene3-Fabs fusions (FIG. 4). Phage were produced from 4 independent clones for each construct: [0462] wt 1F2 and wt 1E2 (llama Vλ and VH fused to human CA and CH1) [0463] safe variant 1F2 and safe variant 1E2 (partially humanized Vλ fused to human CA and CH1) [0464] hum 1F2 and hum 1E2 (fully humanized Vλ and VH fused to human CA and CH1)
(§2) Four clones for each Fab were tested to overcome clonal variation (due to bacterial growth, phage production efficiency and toxicity etc. . . . ). Phage ELISA was performed by capturing of biotinylated IL-1 Beta on neutravidin coated Maxisorp plate and subsequent incubation of crude phage extract (i.e. bacterial medium). After extensive washing, bound phages were detected with an anti-M13-HRP monoclonal antibody. […] [0466] Back mutations in the framework regions of 1F2 VL and VH domains to the closest human germline successfully yield partially (safe) and fully (hum) humanized variants, maintaining antigen specificity. Successful Formatting of Camelid Variable Domains with Human Constant Domains

neutravidin = target: T2, neutravidin (UniProt P02701 25-152); assay: phage ELISA on neutravidin coated wells, crude phage extract, anti-M13-HRP
T2 construct: Capture protein of the phage ELISA, tested alone as the negative control
T2 sequence (P02701 25-152): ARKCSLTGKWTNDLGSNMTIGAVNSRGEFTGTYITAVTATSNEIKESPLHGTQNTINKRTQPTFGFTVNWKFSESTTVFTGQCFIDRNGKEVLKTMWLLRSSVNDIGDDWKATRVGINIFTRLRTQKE
Method: as §1, §2

human IL-1 Beta [2] = target: T1, human IL-1 Beta; assay: competition ELISA, periplasmic Fab extract; competitor: coated blocking mouse mAb; OD of biot-IL-1 Beta bound
Target sequence in this assay (P01584 117-269 limits assumed): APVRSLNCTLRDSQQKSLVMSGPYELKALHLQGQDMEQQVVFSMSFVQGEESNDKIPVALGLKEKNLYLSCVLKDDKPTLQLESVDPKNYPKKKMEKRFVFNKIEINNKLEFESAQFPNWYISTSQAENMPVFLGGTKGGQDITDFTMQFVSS

human IL-1 Beta [3] = target: T1, human IL-1 Beta; assay: ELISA: Fab captured on anti-myc plate, biot-IL-1 Beta, streptavidin-HRP
Method: For this the Fabs were captured on an anti-myc coated Maxisorp plate. Biotinylated human IL-1 Beta was added and bound cytokine was detected using HRP-conjugated streptavidin.
The genes of these Fabs were ordered as synthetic genes with GeneArt (Germany) and were subsequently produced in E. coli, purified and tested for their ability to bind biot-IL-1 Beta. For this the Fabs were captured on an anti-myc coated Maxisorp plate. Biotinylated human IL-1 Beta was added and bound cytokine was detected using HRP-conjugated streptavidin. The read out of this assay is represented in FIG. 3 below. [0459] […] [0460] Partial (wt Vλ/safe VH) and complete (wt Vλ/hum VH) humanization of the VH domain of 1E2 generated a functional Fab.

human IL-1 Beta [4] = target: T1, human IL-1 Beta; assay: ELISA based competition assay; competitor: antagonistic reference mouse mAb
Target sequence in this assay (P01584 117-269 limits assumed): as above

human IL-1 Beta [5] = target: T1, human IL-1 Beta; assay: cell-based or functional assay
Target sequence in this assay (P01584 117-269 limits assumed): as above

Row | Binder | OD (human IL-1 Beta [2]) [OD] | binding result (human IL-1 Beta [3]) | also measured
1 | B1 |  |  | binding result (human IL-1 Beta [1]): binds; binding result (neutravidin): no binding
2 | B2 | 0.444 |  | 
3 | B3 | 0.498 |  | 
4 | B4 |  | binds | 
5 | B5 |  |  | binding result (neutravidin): no binding
6 | B6 |  |  | binding result (neutravidin): no binding
7 | B7 |  | binds | 
8 | B8 |  | binds | 
9 | B9 |  | binds | 
10 | B10 | 0.386 |  | concentration at which competition is seen (human IL-1 Beta [4]): > 50 µg/mL; IC50 in the bioassay (human IL-1 Beta [5]): 3 µg/mL
11 | B11 | 0.205 |  | IC50 (human IL-1 Beta [4]): 12 µg/mL; IC50 in the bioassay (human IL-1 Beta [5]): 10 µg/mL
